Results: patent US20190055316A1

How the values were obtained:
[1] = molecular target: native human MSLN expressed on the cell surface (N87 tumor cells) (human) (UniProt Q13421); experiment: KinExA equilibrium binding to N87 tumor cells expressing native human MSLN
[2] = molecular target: native human MSLN expressed on the cell surface (N87 tumor cells) (human) (UniProt Q13421); experiment: KinExA on N87 cells compared with Biacore on soluble MSLN
[3] = molecular target: recombinant human soluble MSLN (human) (UniProt Q13421); experiment: Biacore (SPR), antibody captured on chip, rHuMSLN sol. in flow
Chain of recombinant human soluble MSLN (human) (Q13421 296-606 limits assumed): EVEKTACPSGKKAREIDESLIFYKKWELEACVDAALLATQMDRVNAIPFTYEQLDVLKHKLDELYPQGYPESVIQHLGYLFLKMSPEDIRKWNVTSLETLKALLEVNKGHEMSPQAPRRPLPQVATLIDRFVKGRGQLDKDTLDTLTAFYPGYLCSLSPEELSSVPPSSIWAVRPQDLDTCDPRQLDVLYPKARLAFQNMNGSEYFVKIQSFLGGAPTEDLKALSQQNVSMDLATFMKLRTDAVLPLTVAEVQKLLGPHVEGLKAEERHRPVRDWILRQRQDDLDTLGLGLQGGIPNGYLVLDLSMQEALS

Chain of native human MSLN expressed on the cell surface (N87 tumor cells) (human) (Q13421 296-606 limits assumed): as above

B1: Ab237 (antibody, V domains shown)
VH: QVQLQESGPGLVKPSQTLSLTCTVSGGSINNNNYYWTWIRQHPGKGLEWIGYIYYSGSTFYNPSLKSRVTISVDTSKTQFSLKLSSVTAADTAVYYCAREDTMTGLDVWGQGTTVTVSS
VL: DIQMTQSPSSLSASVGDRVTITCRASQSINNYLNWYQQKPGKAPTLLIYAASSLQSGVPSRFSGSRSGTDFTLTISSLQPEDFAAYFCQQTYSNPTFGQGTKVEVK
For B1, which Kd [1] is on record?
The Kd was 3.5 pM.

What about the fold higher selectivity for native surface bound MSLN compared to soluble MSLN [2] of the same binder?
The fold higher selectivity for native surface bound MSLN compared to soluble MSLN was 30 fold.

What about the Kd [3] of the same binder?
The Kd was 97 pM.
